In EP4786492A1:

Key:
[1] = target: human DLL4 protein (Acro, Cat. No. DL4-H5227) (human) (UniProt Q9NR61); assay: ELISA, coated hDLL4; maximum over 0.1, 1, 10, 100 nM antibody
[2] = target: DLL3 endogenously expressed on NCI-H82 cells (UniProt Q9NYJ7); assay: FACS on NCI-H82 cells; antibody 20 nM
[3] = target: human DLL3 protein (extracellular segment, His tag) (human) (UniProt Q9NYJ7); assay: SPR (Biacore 8K), antibody captured on Protein A chip, DLL3 antigen in solution, 1:1 Langmuir fit
[4] = target: DLL3 endogenously expressed on NCI-H82 cells (UniProt Q9NYJ7); assay: FACS on NCI-H82 cells; antibody 4 nM
[5] = target: human DLL3 protein expressed on CHO-K1 recombinant cells (human DLL3 extracellular segment fused to EpCAM transmembrane and intracellular regions) (human) (UniProt Q9NYJ7); assay: FACS, CHO-K1 hDLL3 cells, 20 nM antibody
Sequence of human DLL3 protein expressed on CHO-K1 recombinant cells (human DLL3 extracellular segment fused to EpCAM transmembrane and intracellular regions) (human) (Q9NYJ7 other isoform, or with tags, fused parts or gaps limits assumed): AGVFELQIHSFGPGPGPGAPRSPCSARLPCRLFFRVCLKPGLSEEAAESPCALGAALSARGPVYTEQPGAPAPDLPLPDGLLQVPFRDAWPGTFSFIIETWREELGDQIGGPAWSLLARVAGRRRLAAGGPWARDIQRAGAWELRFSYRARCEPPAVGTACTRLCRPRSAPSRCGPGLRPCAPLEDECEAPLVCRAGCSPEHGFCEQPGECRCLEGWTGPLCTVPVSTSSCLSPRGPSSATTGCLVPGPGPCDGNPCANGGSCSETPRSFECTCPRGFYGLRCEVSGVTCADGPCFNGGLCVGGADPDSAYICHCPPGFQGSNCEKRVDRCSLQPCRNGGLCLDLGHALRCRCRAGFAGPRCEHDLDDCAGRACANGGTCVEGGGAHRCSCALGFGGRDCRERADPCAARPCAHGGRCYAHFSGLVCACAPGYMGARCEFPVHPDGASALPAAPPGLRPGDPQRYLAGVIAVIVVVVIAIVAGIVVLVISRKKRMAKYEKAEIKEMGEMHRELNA

[6] = target: mouse DLL3 on CHO-K1-mDLL3 cells (mouse) (UniProt O88516); assay: FACS, CHO-K1-mDLL3 cells, 100 nM antibody
Sequence of mouse DLL3 on CHO-K1-mDLL3 cells (mouse) (O88516 other isoform, or with tags, fused parts or gaps limits assumed): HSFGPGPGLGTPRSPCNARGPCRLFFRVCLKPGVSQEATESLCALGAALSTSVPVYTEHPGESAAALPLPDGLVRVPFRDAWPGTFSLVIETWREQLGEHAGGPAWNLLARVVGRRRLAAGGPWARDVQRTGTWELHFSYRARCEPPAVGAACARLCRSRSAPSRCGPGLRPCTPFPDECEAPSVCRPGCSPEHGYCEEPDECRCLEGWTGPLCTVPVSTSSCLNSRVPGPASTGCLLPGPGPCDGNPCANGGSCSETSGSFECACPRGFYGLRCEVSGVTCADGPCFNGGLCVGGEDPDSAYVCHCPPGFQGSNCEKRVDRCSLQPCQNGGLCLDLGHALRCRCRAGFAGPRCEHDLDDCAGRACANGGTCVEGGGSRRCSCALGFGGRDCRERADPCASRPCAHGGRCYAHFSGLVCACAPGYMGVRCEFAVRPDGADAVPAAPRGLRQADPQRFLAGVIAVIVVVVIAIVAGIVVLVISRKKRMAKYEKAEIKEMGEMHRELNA

[7] = target: DLL3 endogenously expressed on NCI-H82 cells (UniProt Q9NYJ7); assay: FACS on NCI-H82 cells; antibody 0.0064 nM
[8] = target: mouse DLL3 on CHO-K1-mDLL3 cells (mouse) (UniProt O88516); assay: FACS, CHO-K1-mDLL3 cells, 0.8 nM antibody
[9] = target: monkey DLL3 on CHO-K1-cyno DLL3 cells (cynomolgus monkey); assay: FACS, CHO-K1-cyno DLL3 cells, 4 nM antibody
Sequence of monkey DLL3 on CHO-K1-cyno DLL3 cells (cynomolgus monkey) (chain, as listed by the source limits assumed): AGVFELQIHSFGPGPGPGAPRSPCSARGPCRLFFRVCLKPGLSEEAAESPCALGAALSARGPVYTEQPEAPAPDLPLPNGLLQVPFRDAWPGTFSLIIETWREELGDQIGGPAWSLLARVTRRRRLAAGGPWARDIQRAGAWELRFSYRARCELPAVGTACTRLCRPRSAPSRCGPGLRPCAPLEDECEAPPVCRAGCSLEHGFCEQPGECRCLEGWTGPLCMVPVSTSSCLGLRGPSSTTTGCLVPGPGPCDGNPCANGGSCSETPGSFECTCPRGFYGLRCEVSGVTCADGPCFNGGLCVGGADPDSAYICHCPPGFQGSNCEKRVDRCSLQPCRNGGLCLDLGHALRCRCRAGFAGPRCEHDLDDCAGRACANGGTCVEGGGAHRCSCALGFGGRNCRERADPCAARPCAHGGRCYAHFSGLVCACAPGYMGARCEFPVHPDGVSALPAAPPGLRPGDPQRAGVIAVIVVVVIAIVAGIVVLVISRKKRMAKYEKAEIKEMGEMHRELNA

[10] = target: mouse DLL3 on CHO-K1-mDLL3 cells (mouse) (UniProt O88516); assay: FACS, CHO-K1-mDLL3 cells, 20 nM antibody
[11] = target: human DLL3 protein expressed on CHO-K1 recombinant cells (human DLL3 extracellular segment fused to EpCAM transmembrane and intracellular regions) (human) (UniProt Q9NYJ7); assay: FACS, CHO-K1 hDLL3 cells, 100 nM antibody
[12] = target: human DLL3 protein expressed on CHO-K1 recombinant cells (human DLL3 extracellular segment fused to EpCAM transmembrane and intracellular regions) (human) (UniProt Q9NYJ7); assay: FACS, CHO-K1 hDLL3 cells, 0.00128 nM antibody
[13] = target: mouse DLL3 on CHO-K1-mDLL3 cells (mouse) (UniProt O88516); assay: FACS, CHO-K1-mDLL3 cells, 0.0064 nM antibody
[14] = target: monkey DLL3 on CHO-K1-cyno DLL3 cells (cynomolgus monkey); assay: FACS, CHO-K1-cyno DLL3 cells, 100 nM antibody
[15] = target: human DLL3 protein expressed on CHO-K1 recombinant cells (human DLL3 extracellular segment fused to EpCAM transmembrane and intracellular regions) (human) (UniProt Q9NYJ7); assay: FACS, CHO-K1 hDLL3 cells, 0.032 nM antibody
[16] = target: human DLL1 protein (Acro, Cat. No. DL1-H52H8) (human) (UniProt O00548); assay: ELISA, coated hDLL1; maximum over 0.1, 1, 10, 100 nM antibody
Sequence of human DLL1 protein (Acro, Cat. No. DL1-H52H8) (human) (O00548 18-540 limits assumed): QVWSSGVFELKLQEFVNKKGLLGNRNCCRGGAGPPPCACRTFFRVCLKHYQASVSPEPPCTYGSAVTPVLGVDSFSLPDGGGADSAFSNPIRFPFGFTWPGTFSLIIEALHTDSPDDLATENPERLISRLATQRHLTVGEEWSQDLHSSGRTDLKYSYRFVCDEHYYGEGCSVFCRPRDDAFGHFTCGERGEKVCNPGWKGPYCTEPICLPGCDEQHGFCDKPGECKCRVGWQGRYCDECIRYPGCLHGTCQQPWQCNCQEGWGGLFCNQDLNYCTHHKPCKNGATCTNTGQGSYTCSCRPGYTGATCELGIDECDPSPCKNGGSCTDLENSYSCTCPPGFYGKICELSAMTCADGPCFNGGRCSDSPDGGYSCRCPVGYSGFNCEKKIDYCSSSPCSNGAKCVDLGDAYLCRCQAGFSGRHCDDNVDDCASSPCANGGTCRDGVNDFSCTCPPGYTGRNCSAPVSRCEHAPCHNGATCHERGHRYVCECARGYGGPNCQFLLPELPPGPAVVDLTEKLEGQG

[17] = target: human DLL3 protein expressed on CHO-K1 recombinant cells (human DLL3 extracellular segment fused to EpCAM transmembrane and intracellular regions) (human) (UniProt Q9NYJ7); assay: FACS, CHO-K1 hDLL3 cells, 4 nM antibody
[18] = target: monkey DLL3 on CHO-K1-cyno DLL3 cells (cynomolgus monkey); assay: FACS, CHO-K1-cyno DLL3 cells, 20 nM antibody
[19] = target: mouse DLL3 on CHO-K1-mDLL3 cells (mouse) (UniProt O88516); assay: FACS, CHO-K1-mDLL3 cells, 4 nM antibody
[20] = target: mouse DLL3 on CHO-K1-mDLL3 cells (mouse) (UniProt O88516); assay: FACS, CHO-K1-mDLL3 cells, 0.16 nM antibody
[21] = target: DLL3 endogenously expressed on NCI-H82 cells (UniProt Q9NYJ7); assay: FACS on NCI-H82 cells; antibody 0.00128 nM
[22] = target: DLL3 endogenously expressed on NCI-H82 cells (UniProt Q9NYJ7); assay: FACS on NCI-H82 cells; antibody 0.8 nM
[23] = target: mouse DLL3 on CHO-K1-mDLL3 cells (mouse) (UniProt O88516); assay: FACS, CHO-K1-mDLL3 cells, 0.032 nM antibody
[24] = target: mouse DLL3 on CHO-K1-mDLL3 cells (mouse) (UniProt O88516); assay: FACS, CHO-K1-mDLL3 cells, 0.00128 nM antibody
[25] = target: human DLL3 protein expressed on CHO-K1 recombinant cells (human DLL3 extracellular segment fused to EpCAM transmembrane and intracellular regions) (human) (UniProt Q9NYJ7); assay: FACS, CHO-K1 hDLL3 cells, 0.0064 nM antibody
[26] = target: DLL3 endogenously expressed on NCI-H82 cells (UniProt Q9NYJ7); assay: FACS on NCI-H82 cells; antibody 0.032 nM
[27] = target: DLL3 endogenously expressed on NCI-H82 cells (UniProt Q9NYJ7); assay: FACS on NCI-H82 cells; antibody 0.16 nM
[28] = target: monkey DLL3 on CHO-K1-cyno DLL3 cells (cynomolgus monkey); assay: FACS, CHO-K1-cyno DLL3 cells, 0.00128 nM antibody
[29] = target: monkey DLL3 on CHO-K1-cyno DLL3 cells (cynomolgus monkey); assay: FACS, CHO-K1-cyno DLL3 cells, 0.0064 nM antibody
[30] = target: monkey DLL3 on CHO-K1-cyno DLL3 cells (cynomolgus monkey); assay: FACS, CHO-K1-cyno DLL3 cells, 0.16 nM antibody
[31] = target: human DLL3 protein expressed on CHO-K1 recombinant cells (human DLL3 extracellular segment fused to EpCAM transmembrane and intracellular regions) (human) (UniProt Q9NYJ7); assay: FACS, CHO-K1 hDLL3 cells, 0.8 nM antibody
[32] = target: monkey DLL3 on CHO-K1-cyno DLL3 cells (cynomolgus monkey); assay: FACS, CHO-K1-cyno DLL3 cells, 0.8 nM antibody
[33] = target: human DLL3 protein expressed on CHO-K1 recombinant cells (human DLL3 extracellular segment fused to EpCAM transmembrane and intracellular regions) (human) (UniProt Q9NYJ7); assay: FACS, CHO-K1 hDLL3 cells, 0.16 nM antibody
[34] = target: DLL3 endogenously expressed on NCI-H82 cells (UniProt Q9NYJ7); assay: FACS on NCI-H82 cells; antibody 100 nM
[35] = target: human delta-like ligand 3 (DLL3) on SHP77 cells (human) (UniProt Q9NYJ7); assay: FACS on SHP77 cells
Sequence of human delta-like ligand 3 (DLL3) on SHP77 cells (human) (Q9NYJ7 27-618, stated change not applied): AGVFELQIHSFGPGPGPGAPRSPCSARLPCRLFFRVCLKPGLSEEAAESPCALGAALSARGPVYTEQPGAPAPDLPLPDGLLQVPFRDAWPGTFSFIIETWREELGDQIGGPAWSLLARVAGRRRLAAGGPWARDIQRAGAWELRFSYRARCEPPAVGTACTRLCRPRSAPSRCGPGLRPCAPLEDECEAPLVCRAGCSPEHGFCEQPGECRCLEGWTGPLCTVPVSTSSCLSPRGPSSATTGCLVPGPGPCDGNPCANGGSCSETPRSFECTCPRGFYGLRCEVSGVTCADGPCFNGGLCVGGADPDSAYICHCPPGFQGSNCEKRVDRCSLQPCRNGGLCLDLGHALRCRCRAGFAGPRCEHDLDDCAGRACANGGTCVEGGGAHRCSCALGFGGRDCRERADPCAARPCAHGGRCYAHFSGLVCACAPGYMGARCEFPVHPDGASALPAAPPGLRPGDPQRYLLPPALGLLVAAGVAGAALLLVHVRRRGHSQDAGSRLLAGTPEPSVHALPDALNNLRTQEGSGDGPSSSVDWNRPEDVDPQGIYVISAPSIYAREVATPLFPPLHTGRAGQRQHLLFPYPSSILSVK

[36] = target: monkey DLL3 on CHO-K1-cyno DLL3 cells (cynomolgus monkey); assay: FACS, CHO-K1-cyno DLL3 cells, 0.032 nM antibody

Sequence of human DLL3 protein (extracellular segment, His tag) (human) (Q9NYJ7 27-492): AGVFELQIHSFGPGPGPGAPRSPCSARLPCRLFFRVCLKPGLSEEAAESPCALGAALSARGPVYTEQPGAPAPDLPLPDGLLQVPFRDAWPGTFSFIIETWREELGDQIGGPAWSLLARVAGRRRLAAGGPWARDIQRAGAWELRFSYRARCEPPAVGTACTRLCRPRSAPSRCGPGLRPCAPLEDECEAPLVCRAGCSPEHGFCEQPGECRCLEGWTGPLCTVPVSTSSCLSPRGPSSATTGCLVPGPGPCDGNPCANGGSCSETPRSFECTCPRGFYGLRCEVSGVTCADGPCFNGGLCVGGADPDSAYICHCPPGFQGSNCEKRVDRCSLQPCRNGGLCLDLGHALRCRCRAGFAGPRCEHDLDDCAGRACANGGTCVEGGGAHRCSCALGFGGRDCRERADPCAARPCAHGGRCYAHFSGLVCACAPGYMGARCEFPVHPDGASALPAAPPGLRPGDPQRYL
Sequence of DLL3 endogenously expressed on NCI-H82 cells (Q9NYJ7 27-618): as the sequence (Q9NYJ7 27-618, stated change not applied) above
Sequence of human DLL4 protein (Acro, Cat. No. DL4-H5227) (human) (Q9NR61 27-524 limits assumed): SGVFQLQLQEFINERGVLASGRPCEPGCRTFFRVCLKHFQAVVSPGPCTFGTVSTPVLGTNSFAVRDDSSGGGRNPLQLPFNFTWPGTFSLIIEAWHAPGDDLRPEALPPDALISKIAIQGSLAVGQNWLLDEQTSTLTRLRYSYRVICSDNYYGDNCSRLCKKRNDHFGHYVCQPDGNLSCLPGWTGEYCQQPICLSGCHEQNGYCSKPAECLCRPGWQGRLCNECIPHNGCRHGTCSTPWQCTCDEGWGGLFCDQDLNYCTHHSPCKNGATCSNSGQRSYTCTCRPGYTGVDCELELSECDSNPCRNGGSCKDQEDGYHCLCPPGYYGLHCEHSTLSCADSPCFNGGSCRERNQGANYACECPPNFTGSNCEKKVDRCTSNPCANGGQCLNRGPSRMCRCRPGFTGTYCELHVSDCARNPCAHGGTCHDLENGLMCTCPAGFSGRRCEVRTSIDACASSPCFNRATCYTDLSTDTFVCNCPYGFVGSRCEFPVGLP

Emax of OD450 nm binding value [1]: 0.15 OD450 nm
MFI [2]: 519
Kd [3]: 0.568 nM
koff [3]: 0.000221 s⁻¹
kon [3]: 389000 M⁻¹ s⁻¹
MFI [4]: 291
MFI [5]: 13600 MFI
MFI [6]: 589 MFI
MFI [7]: 155
MFI [8]: 529 MFI
MFI [9]: 8590 MFI
MFI [10]: 627 MFI
MFI [11]: 14300 MFI
MFI [12]: 419 MFI
MFI [13]: 187 MFI
MFI [14]: 9720 MFI
MFI [15]: 1050 MFI
Emax of OD450 nm binding value [16]: 0.07 OD450 nm
MFI [17]: 12700 MFI
MFI [18]: 9060 MFI
MFI [19]: 615 MFI
MFI [20]: 406 MFI
MFI [21]: 126
MFI [22]: 412
MFI [23]: 246 MFI
MFI [24]: 126 MFI
MFI [25]: 716 MFI
MFI [26]: 242
MFI [27]: 367
MFI [28]: 750 MFI
MFI [29]: 1380 MFI
MFI [30]: 5000 MFI
MFI [31]: 7270 MFI
MFI [32]: 7840 MFI
MFI [33]: 3100 MFI
MFI [34]: 626
MFI at 0.00128 nM [35]: 208 MFI
MFI at 0.0064 nM [35]: 275 MFI
MFI at 0.032 nM [35]: 458 MFI
MFI at 0.16 nM [35]: 938 MFI
MFI at 0.8 nM [35]: 1310 MFI
MFI at 4 nM [35]: 1410 MFI
MFI at 20 nM [35]: 1600 MFI
MFI at 100 nM [35]: 1890 MFI
MFI [36]: 1730 MFI
B1: Hab006VL1VH4-hFc (scFv, part only; not given: VL-VH linker and human IgG1 Fc, V domains shown, not shown: another chain or arm of the molecule; a dimerising Fc or GST; small tags and cut ends)
VL: DIQMTQSPSSLSASVGDRVTITCRATKSISKYLAWYQQKPGKAPKLLIFSGSTLQSGVPSRFSGSGSGTDFTLTISSLQPEDFATYYCQQHHEYPYTFGGGTKVEIK
VH: EVQLVQSGAEVKKPGASVKVSCKASGYTFTSYWMHWVRQAPGQRLEWMGVIDPSDSLANYNQEFKGRVTLTVDTSSSTAYMELSSLRSEDTAVYYCARDSTVVAPMDYWGQGTTVTVSS
